Sequences and labels used below:
B1: ACE2-binding peptide ABP C2 (peptide)
chain: LHFAKWNHVWSWK-NH2
modifications: also: biotinylated, position not given here
B2: ACE2-binding peptide ABP C1 (peptide)
chain: LFRGYFAAMNNLK-NH2
modifications: also: biotinylated, position not given here
B3: ACE2-binding peptide ABP C4 (peptide)
chain: LKVKYMWDYLFGK-NH2
modifications: also: biotinylated, position not given here

Where no end group is shown, it is not given here.

The target in the experiment is human angiotensin converting enzyme 2 (ACE2), recombinant (human, UniProt Q9BYF1 18-740). Briefly: BLI.
Chain of human angiotensin converting enzyme 2 (ACE2), recombinant (Q9BYF1 18-740): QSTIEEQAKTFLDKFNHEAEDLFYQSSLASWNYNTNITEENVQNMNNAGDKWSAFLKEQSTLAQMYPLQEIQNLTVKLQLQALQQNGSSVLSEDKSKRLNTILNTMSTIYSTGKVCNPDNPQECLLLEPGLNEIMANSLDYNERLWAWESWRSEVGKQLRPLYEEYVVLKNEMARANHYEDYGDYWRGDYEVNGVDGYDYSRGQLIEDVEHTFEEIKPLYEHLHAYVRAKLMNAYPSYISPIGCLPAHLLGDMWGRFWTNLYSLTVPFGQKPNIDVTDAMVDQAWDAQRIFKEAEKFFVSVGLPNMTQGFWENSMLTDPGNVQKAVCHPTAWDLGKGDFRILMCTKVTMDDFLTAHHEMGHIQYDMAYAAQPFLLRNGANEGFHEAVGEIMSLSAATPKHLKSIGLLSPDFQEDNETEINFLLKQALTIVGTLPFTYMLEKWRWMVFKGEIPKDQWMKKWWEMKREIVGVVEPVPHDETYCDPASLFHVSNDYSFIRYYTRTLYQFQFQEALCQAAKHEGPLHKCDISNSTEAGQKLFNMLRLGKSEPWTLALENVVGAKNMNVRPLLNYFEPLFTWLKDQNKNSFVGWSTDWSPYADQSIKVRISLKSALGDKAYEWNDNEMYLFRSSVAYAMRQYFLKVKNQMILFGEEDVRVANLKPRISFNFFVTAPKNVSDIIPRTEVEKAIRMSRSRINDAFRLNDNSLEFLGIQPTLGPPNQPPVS
Usually Kd stands for the equilibrium constant for the complex coming apart. Regarding B1, the Kd was 57 nM.
To B2 belongs 66 nM.
To B3 belongs 58 nM.
